In paper PMC12726774, “HAEEPGP Peptide Efficiently Prevents Alzheimer's Disease Pathology in Vivo” (Alzheimer's & Dementia, 2025):

Biological target: beta-amyloid (Aβ) peptide
Experiment: ITC; isothermal titration calorimetry of HAEEPGP with Aβ peptides; also with zinc ions, which enhanced the interaction; which peptide was titrated, buffer and temperature not told
Conditions: both partners purified

Kd: 1.64 µM
B1: HAEEPGP peptide (peptide)
peptide: HAEEPGP
notes: HAEE tetrapeptide with PGP amino acids added to its C-terminus to stabilize the peptide; The 125I label was used for pharmacokinetics only, not for the calorimetry
